± gives the uncertainty stated by the source.
Experiment: self-splicing fitness, log relative to wild type (ln ratio); higher = more splicing; Tetrahymena group I intron in knt gene, E. coli kanamycin selection, DiMSum; sequences stand for … in CUCUCU…GGAGGGAAAAGUUAUCAGGCAUGCACCUGGUAGCUAGUCUUUAAACCAAUAGAUUGCAUCGGUUUAAAAGGCAAGACCGUCAAAUUGCGGGAAAGGGGUCAACAGCCGUUCAGUACCAAGUCUCAGGGGAAACUUUGAGAUGGCCUUGCAAAGGGUAUGGUAAUAAGCUGACGGACAUGGUCCUAACCACGCAGCCAAGUCCUAAGUCAACAGAUCUUCUGUUGAUAUGGAUGCAGUUCACAGACUAAAUGUCGGUCGGGGAAGAUGUAUUCUUCUCAUAAGAUAUAGUCGGACCUCUCCUUAAUGGGAGCUAGCGGAUGAAGUGAUGCAACACUGGAGCCGCUGGGAACUAAUUUGUAUGCGAAAGUAUAUUGAUUAGUUUUGGAGUACUCGUGGUCG
Procedure, shortened: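 Library with all eight P1ex-region intron nucleotides randomised, intron inside the knt kanamycin-resistance gene on pET-22b(+), in E. coli BL21(DE3). Cells grew overnight at 37°C or 30°C on LB agar with or without 25 μg/mL kanamycin (plus 100 μg/mL carbenicillin, 50 μM IPTG, 0.2% rhamnose), in six replicate transformations. Pooled colonies were amplicon-sequenced on Illumina HiSeq 2500. DiMSum fitness is the error-weighted combination of wild-type-normalised replicate fold changes, kanamycin versus none.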

Row | Sequence | self-splicing fitness (ln) (30 °C) | self-splicing fitness (ln) (37 °C)
1 | UGACAGCAAUAUUACGUGGA | -3 ± 0.21 | -2.31 ± 0.2
2 | UGACAGCAAUAUUACGUUCU | -0.552 ± 0.071 | -0.321 ± 0.089
3 | UGAGAGCAAUAUUACGAACA | -0.706 ± 0.27 | -0.855 ± 0.2
4 | UGAGAGCAAUAUUACGAACU | -3.05 ± 0.43 | -2.02 ± 0.24
5 | UGAGAGCAAUAUUACGACUA | -1.47 ± 0.22 | -1.64 ± 0.21
6 | UGAGAGCAAUAUUACGCCUU | -3 ± 0.18 | -3.73 ± 0.34
7 | UGAGAGCAAUAUUACGCGAU | -3.4 ± 0.33 | -2.24 ± 0.39
8 | UGAGAGCAAUAUUACGCGUG | -2.82 ± 0.24 | 0.21 ± 0.21
9 | UGAGAGCAAUAUUACGCUUA |  | -2.05 ± 0.3
10 | UGAGAGCAAUAUUACGGCUC | -3.55 ± 0.36 | 
11 | UGAGAGCAAUAUUACGGGUG | -3.65 ± 0.19 | -2.11 ± 0.19
12 | UGAGAGCAAUAUUACGGUCU |  | -2.37 ± 0.36
13 | UGAGAGCAAUAUUACGGUUC | -3.4 ± 0.32 | -1.5 ± 0.23
14 | UGAGAGCAAUAUUACGUGCG | -1.95 ± 0.13 | -1.42 ± 0.15
15 | UGAUAGCAAUAUUACGAAAA | -1.85 ± 0.31 | -2.48 ± 0.4
16 | UGAUAGCAAUAUUACGAAUU | -4.02 ± 0.46 | -2.64 ± 0.23
17 | UGAUAGCAAUAUUACGAUAU | -2.94 ± 0.2 | -2.12 ± 0.21
18 | UGAUAGCAAUAUUACGAUGC | -3.93 ± 0.26 | -1.95 ± 0.17
19 | UGAUAGCAAUAUUACGCAAC | -3.43 ± 0.44 | 
20 | UGAUAGCAAUAUUACGCCUC | -3.09 ± 0.32 | -1.34 ± 0.39
21 | UGAUAGCAAUAUUACGCGAU | -2.6 ± 0.29 | -2.65 ± 0.26
22 | UGAUAGCAAUAUUACGCUCG | -0.235 ± 0.13 | 0.0592 ± 0.21
23 | UGAUAGCAAUAUUACGCUGC | -3.67 ± 0.31 | -2.61 ± 0.48
24 | UGAUAGCAAUAUUACGGAAA | -4.03 ± 0.43 | -2.2 ± 0.27
25 | UGAUAGCAAUAUUACGGACG | -0.432 ± 0.1 | -0.181 ± 0.15

Row | Sequence | self-splicing fitness (ln) (30 °C) | self-splicing fitness (ln) (37 °C)
26 | UGAUAGCAAUAUUACGGCCG | 0.151 ± 0.1 | 0.324 ± 0.15
27 | UGAUAGCAAUAUUACGGCUG | 0.473 ± 0.11 | -0.149 ± 0.14
28 | UGAUAGCAAUAUUACGGGUG | -1.56 ± 0.099 | -0.678 ± 0.11
29 | UGAUAGCAAUAUUACGUACG | -0.418 ± 0.074 | 0.13 ± 0.1
30 | UGAUAGCAAUAUUACGUAUA | -1.17 ± 0.18 | -1.53 ± 0.19
31 | UGAUAGCAAUAUUACGUGAC | -3.54 ± 0.29 | -1.82 ± 0.29
32 | UGAUAGCAAUAUUACGUGCU | -1.84 ± 0.094 | -1.59 ± 0.14
33 | UGAUAGCAAUAUUACGUUGG | -2.45 ± 0.12 | -1.63 ± 0.16
34 | UGCAAGCAAUAUUACGAACC | -1.15 ± 0.15 | -0.525 ± 0.17
35 | UGCAAGCAAUAUUACGACCU | -0.737 ± 0.07 | -0.219 ± 0.089
36 | UGCAAGCAAUAUUACGACGU | -1.76 ± 0.1 | -1.1 ± 0.13
37 | UGCAAGCAAUAUUACGAGAA | -2.52 ± 0.47 | -1.94 ± 0.27
38 | UGCAAGCAAUAUUACGAGAU | -3.16 ± 0.24 | -3.02 ± 0.35
39 | UGCAAGCAAUAUUACGAGCG | -2.37 ± 0.092 | -0.896 ± 0.1
40 | UGCAAGCAAUAUUACGAGCU | -0.536 ± 0.089 | -0.0945 ± 0.1
41 | UGCAAGCAAUAUUACGAGGC | -4.02 ± 0.27 | -2.13 ± 0.23
42 | UGCAAGCAAUAUUACGAUUA | -0.19 ± 0.077 | 0.163 ± 0.092
43 | UGCAAGCAAUAUUACGCCAA | -1.67 ± 0.34 | -0.657 ± 0.19
44 | UGCAAGCAAUAUUACGCCUU | -1 ± 0.16 | -0.449 ± 0.15
45 | UGCAAGCAAUAUUACGCGCU | -1.28 ± 0.12 | -0.818 ± 0.12
46 | UGCAAGCAAUAUUACGGCAG | -0.827 ± 0.078 | -0.0588 ± 0.12
47 | UGCAAGCAAUAUUACGGGAU | -3.04 ± 0.13 | -2.89 ± 0.15
48 | UGCAAGCAAUAUUACGGGGC | -3.59 ± 0.27 | -2.56 ± 0.24
49 | UGCAAGCAAUAUUACGGUCC | -1.81 ± 0.057 | -1.16 ± 0.084
50 | UGCAAGCAAUAUUACGGUGA | -0.55 ± 0.068 | 0.00833 ± 0.086

Row | Sequence | self-splicing fitness (ln) (30 °C) | self-splicing fitness (ln) (37 °C)
51 | UGCAAGCAAUAUUACGUAGG | -3.31 ± 0.21 | -0.277 ± 0.14
52 | UGCAAGCAAUAUUACGUCGA | -1.09 ± 0.082 | -0.989 ± 0.089
53 | UGCAAGCAAUAUUACGUGAG | -3.87 ± 0.21 | -2.72 ± 0.18
54 | UGCAAGCAAUAUUACGUUGU | -4.31 ± 0.24 | -2.78 ± 0.2
55 | UGCCAGCAAUAUUACGAAAC |  | -2.42 ± 0.23
56 | UGCCAGCAAUAUUACGAAGA | -2.87 ± 0.18 | -1.33 ± 0.14
57 | UGCCAGCAAUAUUACGACAG | -1.31 ± 0.1 | -0.406 ± 0.12
58 | UGCCAGCAAUAUUACGACGA | -1.01 ± 0.12 | -1.01 ± 0.12
59 | UGCCAGCAAUAUUACGAGUC | -3.49 ± 0.16 | -1.6 ± 0.16
60 | UGCCAGCAAUAUUACGAUAG | -2.17 ± 0.12 | -1.09 ± 0.12
61 | UGCCAGCAAUAUUACGAUGA | -1.99 ± 0.14 | -0.997 ± 0.12
62 | UGCCAGCAAUAUUACGAUUC | -2.68 ± 0.18 | -2.41 ± 0.3
63 | UGCCAGCAAUAUUACGCUCC | -2.88 ± 0.12 | -1.15 ± 0.14
64 | UGCCAGCAAUAUUACGGAAU | -2.74 ± 0.15 | -1.95 ± 0.11
65 | UGCCAGCAAUAUUACGGCAU | -2.48 ± 0.15 | -3.23 ± 0.26
66 | UGCCAGCAAUAUUACGGCCC | -0.651 ± 0.12 | -0.528 ± 0.17
67 | UGCCAGCAAUAUUACGGCGC | -3.8 ± 0.27 | -3.04 ± 0.23
68 | UGCCAGCAAUAUUACGGUCC | -0.84 ± 0.2 | 0.136 ± 0.2
69 | UGCCAGCAAUAUUACGUGCU | -3.14 ± 0.11 | -1.48 ± 0.1
70 | UGCCAGCAAUAUUACGUUUG | -2.35 ± 0.092 | -0.857 ± 0.12
71 | UGCGAGCAAUAUUACGAAGA | -3.24 ± 0.37 | -1.97 ± 0.28
72 | UGCGAGCAAUAUUACGACAA | -1.55 ± 0.3 | -0.809 ± 0.2
73 | UGCGAGCAAUAUUACGACAG | -2.55 ± 0.21 | -1.29 ± 0.18
74 | UGCGAGCAAUAUUACGAGCA | -1.98 ± 0.18 | -2.37 ± 0.22
75 | UGCGAGCAAUAUUACGAGUG | -2.85 ± 0.17 | -2.32 ± 0.28

Row | Sequence | self-splicing fitness (ln) (30 °C) | self-splicing fitness (ln) (37 °C)
76 | UGCGAGCAAUAUUACGCCGA |  | -1.26 ± 0.4
77 | UGCGAGCAAUAUUACGCGGC | -3.44 ± 0.33 | -3.46 ± 0.46
78 | UGCGAGCAAUAUUACGCUAG | -2.68 ± 0.45 | 
79 | UGCGAGCAAUAUUACGCUCG | -2.91 ± 0.22 | -1.92 ± 0.23
80 | UGCGAGCAAUAUUACGGAAG |  | -2.26 ± 0.34
81 | UGCGAGCAAUAUUACGGAUA | -2.36 ± 0.27 | -2.08 ± 0.36
82 | UGCGAGCAAUAUUACGGAUG | -3.65 ± 0.16 | -2.02 ± 0.14
83 | UGCGAGCAAUAUUACGGCAU | -2.64 ± 0.27 | 
84 | UGCGAGCAAUAUUACGGCGG | -1.21 ± 0.084 | -0.816 ± 0.13
85 | UGCGAGCAAUAUUACGGCUA | 0.388 ± 0.12 | 0.499 ± 0.15
86 | UGCGAGCAAUAUUACGGUAU | -5.17 ± 0.38 | -2.32 ± 0.19
87 | UGCGAGCAAUAUUACGGUUG | -1.51 ± 0.16 | -1.82 ± 0.26
88 | UGCGAGCAAUAUUACGUAGC | -2.36 ± 0.27 | -2.05 ± 0.38
89 | UGCGAGCAAUAUUACGUCGG |  | -1.91 ± 0.26
90 | UGCGAGCAAUAUUACGUUCU | -1.68 ± 0.12 | -2.05 ± 0.14
91 | UGCGAGCAAUAUUACGUUUU | -5.01 ± 0.45 | -3.25 ± 0.24
92 | UGCUAGCAAUAUUACGAAGA |  | -2.09 ± 0.2
93 | UGCUAGCAAUAUUACGAAGU | -2.88 ± 0.3 | -2.51 ± 0.49
94 | UGCUAGCAAUAUUACGACUA | -0.649 ± 0.16 | -0.872 ± 0.14
95 | UGCUAGCAAUAUUACGAGGU | -2.94 ± 0.27 | -3.27 ± 0.39
96 | UGCUAGCAAUAUUACGAUAC | -2.57 ± 0.28 | -1.93 ± 0.28
97 | UGCUAGCAAUAUUACGAUGA | -1 ± 0.1 | -1.2 ± 0.09
98 | UGCUAGCAAUAUUACGCGGU | -4.3 ± 0.42 | -2.36 ± 0.31

Reference: the supplement of paper PMC7877785
